Source: patent US20160040149A1, “Compositions Having Dicamba Decarboxylase Activity and Methods of Use” (priority 2013, published 2016)
Substitutions are numbered along the chain they refer to.

B1: 34 (protein)
chain: MAQGKIGLEEHFAIPETLNDSAGFVPGDYWKELSRRLLDIQDDRLRQMDENGMEMMLLSLNAPAVQAVPDRKQACELAVRANDFLAEQVSRRPDRFQALAALPLQDPDFATVELTRCVNELGMRGALVNGFSQIDTPDNVVYYDAPQYASFWAAVEKLDVPFYLHPRNPIASWAQIYDGHPWLLGPTWAFGQETAVHALRLMASGLFDRHPALQIVLGHLGEGLPYSLWRIDNRNAWVKAPKTHPAKKTFRHYFQQNFHLTTSGNFHNQTLIDAILEIGADRILFSTDWPFENIDHAAKWFDSASISEADRTKIGRTNAMKLFKLVA
modifications: Cupriavidus necator
B2: 30 (protein)
chain: MARGKIALEEHVSTPENNRLWDSTGEANRNGSEYMQDVERRLLDRSIQLEEMAQRNIDHVILSLTSPGAQSILDKAKAVSFARDTNDFIVDNYVKPNPDKFSAFATLALQNPEAAAEELERAVKKLGMKGALINGYTNVKDSEHGLYLDDESMLVFWDKVNELNVPVYLHPREPLEGPARGIYTGYESLIGSAWGFAQETAVHAIRLMMSGLFDRYPNLNLVLGHLGEGLVHMLPRTQHRLYRQRFGCGLGKAEKPLMHYLQNNFIVTTSGHFNTHSLNNAIEVMGADRVMFSVDYPYEDIHQACDWFDPLEMDEGLKEKIAWGNASRVFNIK
modifications: Enterobacter aerogenes
B3: 42 (protein)
chain: MAQGKIALEEHFAIPDTLQDSAGFVPGDYWKELSARLLDIHEQRLMQMDAYGIEKMILSLNAPAVQAIPDKAKALEISRRANDFLAEQCARNPDRFLGFAALPLQDPDAATAELQRCVKTLGFVGALVNGFSQEGDGVTPLYYDLPQYRGFWAEVEKLAVPFYLHPRNPLPQDSRIYAGHPWLMGPTWAFAQETAVHALRLVGSGLFDDHPALRIILGHMGEGLPYMMWRIDNRNAWVKVAPNYPAKRRIADYFNENFYITTSGNFRTQSLVDAMLEIGADRILFSTDWPFENIDHASDWFDTATISEADRLKIGRTNAATLFNLES
modifications: Agrobacterium radiobacter
B4: 44 (protein, listed as Mycobacterium avium)
chain: MARIITVEEHFQHPEVSARVAELTGPAVEGLAEFGNAFSLDPDSTARLGGNRLAHMDQVGIDVQVVSHGNGSPGTLQHPEAVELCRRVNNDLAAQIAENPDRFRGFATLPLYDPAAAAEELRRCVGDLGFVGALIAGSYDGLFLDDERFDPILTAAEAVDFPIYVHPGLPEAPVSQRYYAGSWPASVHMMFSGPAFGWHAEAGIHIVRLILSGALDRHPTLKLLSGHWGELAAFYLERLDETLGLLPTGLERAPSDYYRQQVWITPSGMYNQNQLNFMTAELGAQRIIYSEDFPYVVRDNVSTFLEQAGLSEADTHAIAHTNAEALLRI
B5: 37 (protein, listed as Burkholderia gladioli)
chain: MATFSNVKKIALEEHFAIAETIEDSAGFVPPDDWVELRGRLLDIQERRLAEMDRAGIELMVLSLNAPAVQAIRDPRQAVELARRANDYLAEQVARRPDRFRAFAALPMQAPEQAIREAERCVRELGFVGALVNGFSEAEDGAELYYDLPRYRPFWAALEALEVPFYLHPRNPLAGRAPIYDGHSWLMGPTWAFGQETAVHALRLMGSGLFDAHPRLQIILGHMGEGLPYSMWRVDNRNAWVSAKPNYPAEKPIAEYFRNNFWLTTSGNFRTQTLIDAMLEIGSDRILFSADWPFENMDHAADWFDHASISENDRIKIGRGNAERLLKLGR
B6: 38 (protein, listed as Variovorax paradoxus)
chain: MAQGKIGLEEHFAIPQTLQDSAGFVPGVYWKELSSRLLDIHDGRLRQMDEHGMEMMILSLNAPAVQAVADPVKAYELAVRANDFLAEQVAKRPDRFQAFAALPMQDPEKATQELERCMSVLGFRGALVNGFSQVGTPDNVAYYDAPQYAPFWAAAERLDAPFYLHPRNPIASWAQIYEGHPWLLGPTWAFAQETAVHALRLMASGLFDRHPGLKIILGHLGEGLPYNMWRVDHRNAWVKAPKGYPAKRKLCEYFQENFYLTTSGNFRTQTLIDAMLEVGSDRILFSTDWPFENIDHASNWFNDTSISEADRKKIGRTNAMSLFKLA
B7: 31 (protein, listed as Agrobacterium sp.)
chain: MAQGKVALEEHFAIPETLQDSAGFVPGDYWKELQHRLLDIQDTRLKLMDAHGIETMILSLNAPAVQAIPDKTKAIEIARRANDVLAEECAKRPDRFLAFAALPLQDPDAATEELQRCVNDLGFVGALVNGFSQEGDGQTPLYYDLPQYRPFWGEVEKLDVPFYLHPRNPLPQDSRIYDGHPWLLGPTWAFAQETAVHALRLMASGLFDEHPRLNIILGHMGEGLPYMMWRIDHRNAWVKLPPRYPAKRRFMDYFNENFHITTSGNFRTQTLIDAILEIGADRILFSTDWPFENIDHASDWFNATSIAEADRVKIGRTNARRLFKLDGA
B8: 36 (protein, listed as Agrobacterium sp.)
chain: B7 chain with K31T, V84A, D94N, E112Q, T139I, M251V, N302H, A328R
B9: 39 (protein, listed as Agrobacterium fabrum)
chain: B7 chain with Y29C, K31T, V84A, E112Q, Q115R, N214D, M251V, N302H, A328R
B10: 40 (protein, listed as Rhodococcus jostii)
chain: MAQGKIALEEHFAIPETLNDSAGFVPGTYWDELQARLLDIQDVRLKLMDEHNIETMILSLNAPAVQAIPERERAIDIARRANDVLAEECAKRPDRFRGFAALPLQDPDAAAEELRRCVTELGFVGALVNGFSQSATVDGGSTPLYYDLPRYRPFWAEVERLDVPFYLHPRNPLNQDARIYEGHPWLLGPTWAFAQETAVHALRLMASGLFDEHPGLRIVLGHMGEGIPAMLWRIDHRNAWVDVPPAYPAKRRMVDYFTENFFVTTSGNFRTQTLIDLLLELGSERVMFSTDWPFENINHAAEWFDAASISEADRLKIGRTNAATLFKLDR
B11: 33 (protein, listed as Rhizobium leguminosarum)
chain: MAQGKIALEEHFAIPETLQDSAGFVPGDYWKELSARLLDIQEKRLRLMDAHGIEKMILSLNAPAVQAIPDRAKALEISRRANDFLAEQCVKNPNRFLGFAALPLQDPDAATQELQRCVTTMGFVGALVNGFSQEGDGTTPLYYDLPQYRSFWAEVEKLNVPFYLHPRNPLPQDSRIYAGHSWLMGPTWAFAQETAVHALRLMGSGLFDEHPALRIIVGHMGEGLPYMMWRIDNRNAWVKVEKSYPAKRPIADYFNENFYITTSGNFRTQSLIDAMLEIGADRILFSADWPFENIDHAANWFDSATISEADRLKIGRTNAVSLFKLDR
B12: 43 (protein, listed as Rhizobium leguminosarum)
chain: B11 chain with K31T, E42D, A50T, R71K, L75V, S150P, N159D, I294V
B13: 28 (protein, listed as Sphingomonas paucimobilis)
chain: MARLIATEEAVTFQPVVDALRAHSRTDDASLDMILVRDVYGDEPARPAMIGRLSDVTGERLAEMDSNGVDMHLLSLTAPGVQMFDAETGTRLARIANDLMAQTVAANPTRFAGLGTFAPQDPASAAREIERVATQLRLNGLVINSHTNDLYYDDPFFHPVFEAIEASGLALYIHPRAPSKQIDRAFRDYGMNSAIWGYGIETSTNAVRMILSGLFDRFPRLKIVLGHMGEAIPFWLWRLDYMHGNATTFGGAPKLKLKPSEYFRRNFAITTSGVESHAALRYSIEVLGPENVMWAIDYPYQPMAPAVQFIRTAPIPEDVKAMVAGGNAARIFRIT
B14: 29 (protein, listed as Pseudovibrio sp.)
chain: MAGRRDFLRKSVAAGVGLTAAAQLSAGGAQATVPDTSNIPLITLEEHFTTPELQSKNTSGDKRLFSGGGSRPELLDVGAGRIADMDEAGIDIQVLSTVTPGASKITGAEGVEFTRKFNTWIAEEVIAAYPNRFRAFATLPLSSPEAAADELERSVREYGFVGTMTYGPIDGKFLDHADYAPLLARAEALGVPIYIHPNWPSPTAMQAYYDGLGDDLTSRILSGPGYGWHQEIAVQCLRLIVGGVFDRFPNLQIVVGHMGEGLPFYYWRVGEDLDRIAQKRLQKPVQQYFHDNLWITTSAFFRDELLNLALATMGEDRVMFSVDYPMASAKVGADWLRAADIPLATKEKIGSKNAMKLLGIDKI
B15: 35 (protein)
chain: MAFKASRKIALEEHFAIDATVQDSAGFVPPSYWAELKRRLLDIHDRRIDEMDRNGVELMVLSLNAPTVQAVPNIKDAYDLSRRANDFLAEQIVKRPERFKGFAALPMQSPDLAARELERCVKELNFVGALVNGFSQVEESGTALYYDLPQYRQFWSVVQALDVPFYLHPRNPLPAHAPIYEGHPWLLGPTWAFGQETAVHALRLMGSGLFDEYPELKIILGHMGEGLPYSMWRIDNRNAWVETQPNYPAKKRIAEYFHKNFWLTTSGNFRTQTLIDAMLEIGSDRILFSTDWPFENVDHAAQWFDDAAISENDRIKIARTNAARLFKLEP
modifications: Burkholderia sp

Test: Saturation mutagenesis of SEQ ID NO:109: dicamba decarboxylation activity of point mutants (CO2 released), fold of backbone (Tables 7, 8, Megatable 1)
Settings: decarboxylation activity (CO2 released) of point mutant vs unmutated backbone protein; backbone SEQ ID NO: 109

Going from B1 to B2, the “Fold Activity” value rises from 1.6 fold to 2 fold.

Going from B3 to B4, the “Fold Activity” value falls from 1.7 fold to 0.7 fold.

Going from B5 to B6, the “Fold Activity” value rises from 1.6 fold to 1.8 fold.

Compared with B7, B8 is higher in “Fold Activity” value: 1.7 fold for the first, 2 fold for the second.

Compared with B9, B10 is lower in “Fold Activity” value: 1.6 fold for the first, 1.4 fold for the second.

First: B11
Second: B12
The “Fold Activity” value of the first is higher: 1.6 fold for the first, 1 fold for the second.

First: B13
Second: B14
The “Fold Activity” value of the first is lower: 1.2 fold for the first, 1.5 fold for the second.

For B15, the “Fold Activity” value was 2.2 fold.
